The source of these data is publication doi:10.1101/2021.08.23.457303 (bioRxiv, 2021).

In assay [1] the target is T1, His-tagged human Bin1 isoform 8 K436X (CNM-associated, truncated SH3 domain) (human, UniProt O00499-8 1-435).
T1 sequence: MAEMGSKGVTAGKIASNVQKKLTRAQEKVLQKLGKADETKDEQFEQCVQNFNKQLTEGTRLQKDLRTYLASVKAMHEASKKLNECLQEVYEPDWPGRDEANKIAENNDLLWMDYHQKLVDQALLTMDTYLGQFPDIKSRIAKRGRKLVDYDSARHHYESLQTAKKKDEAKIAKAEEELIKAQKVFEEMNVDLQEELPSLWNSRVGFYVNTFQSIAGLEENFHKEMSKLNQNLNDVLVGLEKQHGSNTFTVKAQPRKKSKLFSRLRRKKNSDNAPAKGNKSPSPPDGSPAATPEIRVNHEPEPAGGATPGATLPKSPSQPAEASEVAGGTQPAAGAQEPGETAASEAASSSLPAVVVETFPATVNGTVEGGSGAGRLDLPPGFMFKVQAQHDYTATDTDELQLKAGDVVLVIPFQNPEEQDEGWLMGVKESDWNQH
Put plainly: pull-down.

For assay [2], the target named is T2, His-tagged human Bin1 isoform 8, wild type, full length (human, UniProt O00499-8 1-454).
T2 sequence: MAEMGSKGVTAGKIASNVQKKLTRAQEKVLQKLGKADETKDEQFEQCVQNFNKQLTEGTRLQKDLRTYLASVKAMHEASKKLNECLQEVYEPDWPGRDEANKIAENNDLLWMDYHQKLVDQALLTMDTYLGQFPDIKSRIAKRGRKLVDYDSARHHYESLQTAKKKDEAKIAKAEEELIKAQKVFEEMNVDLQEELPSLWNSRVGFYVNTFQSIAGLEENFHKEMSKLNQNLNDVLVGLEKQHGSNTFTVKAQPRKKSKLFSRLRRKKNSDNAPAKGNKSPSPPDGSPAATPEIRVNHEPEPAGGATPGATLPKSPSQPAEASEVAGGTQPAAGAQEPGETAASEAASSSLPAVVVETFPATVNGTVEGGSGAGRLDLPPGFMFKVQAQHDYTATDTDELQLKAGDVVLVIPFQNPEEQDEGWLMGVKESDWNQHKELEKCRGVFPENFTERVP
Put plainly: pull-down.

B1: GST-tagged PRD domain of Dyn2 (domain or fragment)
chain: PVPPPVDDTWLQSASSHSPTPQRRPVSSIHPPGRPPAVRGPTPGPPLIPVPVGAAASFSAPPIPSRPGPQSVFANSDLFPAPPQIPSRPVRIPPGIPPGVPSRRPPAAPSRPTIIRPAEPSLLD
The Kd is the concentration at which binding is half-saturated. As for B1, the Kd is 267 nM in assay [1] and 180 nM in assay [2].
